Values joined by “and” are separate entries in the source; they are usually repeats but may differ in a detail not shown here. Equal values may be shown once.

For orientation: stoichiometry N means the number of molecules, sites or subunits per partner or assembly. As usually defined, the Kd is the equilibrium constant for the complex coming apart. Low values mean tighter binding, high ones weaker binding.

Sequences and labels used below:
B1: His6-tagged BiP ATPase domain (residues 28–405) (domain or fragment)
chain: not shown
notes: BiP, human, ATPase domain, residues 28-405; also called His6-tagged BiP ATPase domain protein; source: E. coli BL21 (DE3), purified (Co2+-NTA, anion exchange, SEC); not shown: His6, N-terminal, kept
B2: Ire1 luminal domain region II–IV (residues 32–390) (domain or fragment, human, UniProt O75460 32-390, looked up)
chain: LLFVSTLDGSLHAVSKRTGSIKWTLKEDPVLQVPTHVEEPAFLPDPNDGSLYTLGSKNNEGLTKLPFTIPELVQASPCRSSDGILYMGKKQDIWYVIDLLTGEKQQTLSSAFADSLCPSTSLLYLGRTEYTITMYDTKTRELRWNATYFDYAASLPEDDVDYKMSHFVSNGDGLVVTVDSESGDVLWIQNYASPVVAFYVWQREGLRKVMHINVAVETLRYLTFMSGEVGRITKWKYPFPKETEAKSKLTPTLYVGKYSTSLYASPSMVHEGVAVVPRGSTLPLLEGPQTDGVTIGDKGECVITPSTDVKFDPGLKSKNKLNYLRNYWLLIGHHETPLSASTKMLERFPNNLPKHRENV
notes: Ire1, human, luminal domain regions II-IV, residues 32-390; With cross linker it forms dimer and tetramer species; also called Ire1 II–IV; Ire1 LD for cross-link experiment; source: E. coli BL21 (DE3), purified (Co2+-NTA, anion exchange, SEC); not shown: His6, N-terminal, cleaved
B3: Ire1 luminal domain, complete (region I–V, residues 24–440) (domain or fragment, human, UniProt O75460 24-440, looked up)
chain: STVTLPETLLFVSTLDGSLHAVSKRTGSIKWTLKEDPVLQVPTHVEEPAFLPDPNDGSLYTLGSKNNEGLTKLPFTIPELVQASPCRSSDGILYMGKKQDIWYVIDLLTGEKQQTLSSAFADSLCPSTSLLYLGRTEYTITMYDTKTRELRWNATYFDYAASLPEDDVDYKMSHFVSNGDGLVVTVDSESGDVLWIQNYASPVVAFYVWQREGLRKVMHINVAVETLRYLTFMSGEVGRITKWKYPFPKETEAKSKLTPTLYVGKYSTSLYASPSMVHEGVAVVPRGSTLPLLEGPQTDGVTIGDKGECVITPSTDVKFDPGLKSKNKLNYLRNYWLLIGHHETPLSASTKMLERFPNNLPKHRENVIPADSEKKSFEEVINLVDQTSENAPTTVSRDVEEKPAHAPARPEAPVDSM
notes: Ire1, human, luminal domain regions I-V, residues 24-440; also called Ire1 I–V; Ire1 LD; source: E. coli BL21 (DE3), purified (Co2+-NTA, anion exchange, SEC); not shown: His6, N-terminal, cleaved
B4: Perk luminal domain, complete (region I–V, residues 54–509) (domain or fragment, human, UniProt Q9NZJ5 54-509, looked up)
chain: TSATRVPAAGAVAAAEVTVEDAEALPAAAGEQEPRGPEPDDETELRPRGRSLVIISTLDGRIAALDPENHGKKQWDLDVGSGSLVSSSLSKPEVFGNKMIIPSLDGALFQWDQDRESMETVPFTVESLLESSYKFGDDVVLVGGKSLTTYGLSAYSGKVRYICSALGCRQWDSDEMEQEEDILLLQRTQKTVRAVGPRSGNEKWNFSVGHFELRYIPDMETRAGFIESTFKPNENTEESKIISDVEEQEAAIMDIVIKVSVADWKVMAFSKKGGHLEWEYQFCTPIASAWLLKDGKVIPISLFDDTSYTSNDDVLEDEEDIVEAARGATENSVYLGMYRGQLYLQSSVRISEKFPSSPKALESVTNENAIIPLPTIKWKPLIHSPSRTPVLVGSDEFDKCLSNDKFSHEEYSNGALSILQYPYDNGYYLPYYKRERNKRSTQITVRFLDNPHYNKN
notes: Perk, human, luminal domain regions I-V, residues 54-509; see recheck on the SEC MALS mass; also called Perk I–V; Perk LD; source: E. coli BL21 (DE3), purified (Co2+-NTA, anion exchange, SEC); not shown: His6, N-terminal, cleaved
B5: BiP ATPase domain (residues 28–405), His6-tag removed (domain or fragment)
chain: not shown
notes: BiP, human, ATPase domain, residues 28-405; also called BiP's ATPase domain; source: E. coli BL21 (DE3), purified (Co2+-NTA, anion exchange, SEC); not shown: His6, N-terminal, cleaved
B6: Ire1 luminal domain region I–IV (residues 24–390) (domain or fragment, human, UniProt O75460 24-390, looked up)
chain: STVTLPETLLFVSTLDGSLHAVSKRTGSIKWTLKEDPVLQVPTHVEEPAFLPDPNDGSLYTLGSKNNEGLTKLPFTIPELVQASPCRSSDGILYMGKKQDIWYVIDLLTGEKQQTLSSAFADSLCPSTSLLYLGRTEYTITMYDTKTRELRWNATYFDYAASLPEDDVDYKMSHFVSNGDGLVVTVDSESGDVLWIQNYASPVVAFYVWQREGLRKVMHINVAVETLRYLTFMSGEVGRITKWKYPFPKETEAKSKLTPTLYVGKYSTSLYASPSMVHEGVAVVPRGSTLPLLEGPQTDGVTIGDKGECVITPSTDVKFDPGLKSKNKLNYLRNYWLLIGHHETPLSASTKMLERFPNNLPKHRENV
notes: Ire1, human, luminal domain regions I-IV, residues 24-390; also called Ire1 I–IV; source: E. coli BL21 (DE3), purified (Co2+-NTA, anion exchange, SEC); not shown: His6, N-terminal, cleaved
B7: Perk luminal domain region I–IV (residues 54–403) (domain or fragment, human, UniProt Q9NZJ5 54-403, looked up)
chain: TSATRVPAAGAVAAAEVTVEDAEALPAAAGEQEPRGPEPDDETELRPRGRSLVIISTLDGRIAALDPENHGKKQWDLDVGSGSLVSSSLSKPEVFGNKMIIPSLDGALFQWDQDRESMETVPFTVESLLESSYKFGDDVVLVGGKSLTTYGLSAYSGKVRYICSALGCRQWDSDEMEQEEDILLLQRTQKTVRAVGPRSGNEKWNFSVGHFELRYIPDMETRAGFIESTFKPNENTEESKIISDVEEQEAAIMDIVIKVSVADWKVMAFSKKGGHLEWEYQFCTPIASAWLLKDGKVIPISLFDDTSYTSNDDVLEDEEDIVEAARGATENSVYLGMYRGQLYLQSSVRI
notes: Perk, human, luminal domain regions I-IV, residues 54-403; also called Perk I–IV; source: E. coli BL21 (DE3), purified (Co2+-NTA, anion exchange, SEC); not shown: His6, N-terminal, cleaved
B8: unfolded protein CH1 (immunoglobulin constant heavy chain domain) (domain or fragment)
chain: not shown
notes: immunoglobulin constant heavy chain domain CH1, intrinsically unfolded without CL; also called CH1 substrate; source: expressed as previously described (Marcinowski et al., 2011)

The target in data set [1] is B2. Put plainly: cross-linking; EGS, 50-fold molar excess, 1 hr; proteins at 50 μM in 50 mM Hepes pH 8.0, 50 mM NaCl, 5% glycerol, 5 mM DTT; alone or in 1:1 molar mixture; SDS-PAGE and anti-His6 blot. The note with it: both partners purified.
Data set [2] concerns the molecule itself. Described as above.
The target in data set [3] is B5. Put plainly: MST; Monolith NT.115; buffer B (50 mM HEPES pH 7.5, 75 mM NaCl, 10% glycerol, 1 mM TCEP), no nucleotide; one partner labelled (Red-NHS) at 50 nM, sixteen twofold dilutions of the unlabelled partner (which was labelled is not told); 25°C; three independent experiments averaged. The note with it: both partners purified.
Data set [4] concerns the target T1, ΔEspP, yeast Ire1-specific unfolded peptide mimic.
T1 construct: also called unfolded protein peptide mimic; source: bought: AltaBiosciences
Put plainly: ITC. The note with it: both partners purified.

The data set “SEC-MALS” deals with the molecule itself. The experiment in a line: SEC-MALS. A general note: Size exclusion chromatography separates by hydrodynamic size, large species first.
The target of data set [5] is T2, full-length BiP (BiP FL, residues 28–654), His6-tag removed (human, UniProt P11021 28-654).
T2 construct: BiP (ER Hsp70 chaperone), human, residues 28-654; In MST one partner carried the Red-NHS label; also called ER Hsp70 chaperone; source: E. coli BL21 (DE3), purified (Co2+-NTA, anion exchange, SEC); not shown: His6, N-terminal, cleaved
T2 sequence (P11021 28-654): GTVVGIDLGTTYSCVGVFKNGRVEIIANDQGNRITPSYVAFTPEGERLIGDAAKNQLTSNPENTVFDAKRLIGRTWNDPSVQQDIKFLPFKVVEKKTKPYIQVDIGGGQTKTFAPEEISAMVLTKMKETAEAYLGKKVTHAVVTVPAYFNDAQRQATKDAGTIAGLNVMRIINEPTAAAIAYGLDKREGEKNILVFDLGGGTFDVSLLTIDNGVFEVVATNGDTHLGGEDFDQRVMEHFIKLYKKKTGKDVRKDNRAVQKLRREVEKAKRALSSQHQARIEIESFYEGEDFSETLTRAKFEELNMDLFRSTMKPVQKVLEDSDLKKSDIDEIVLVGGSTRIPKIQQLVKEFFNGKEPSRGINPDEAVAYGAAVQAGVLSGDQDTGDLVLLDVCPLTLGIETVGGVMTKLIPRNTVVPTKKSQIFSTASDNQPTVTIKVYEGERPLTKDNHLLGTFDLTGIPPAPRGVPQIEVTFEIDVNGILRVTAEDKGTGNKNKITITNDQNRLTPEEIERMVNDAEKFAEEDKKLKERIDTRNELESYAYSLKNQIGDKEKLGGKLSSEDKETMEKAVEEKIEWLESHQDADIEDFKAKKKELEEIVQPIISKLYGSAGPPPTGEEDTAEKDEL
Put plainly: MST; Monolith NT.115; buffer B (50 mM HEPES pH 7.5, 75 mM NaCl, 10% glycerol, 1 mM TCEP), no nucleotide; one partner labelled (Red-NHS) at 50 nM, sixteen twofold dilutions of the unlabelled partner (which was labelled is not told); 25°C; three independent experiments averaged. As to conditions: both partners purified.

Data set [6] deals with B4. Described as above. The note with it: both partners purified.
For data set [7], the target named is B3. The description is as above. As to conditions: both partners purified.
Data set [8] has as its target T3, BiP substrate binding domain (residues 422–654), His6-tag removed (human, UniProt P11021 422-654).
T3 construct: also called BiP SBD; source: E. coli BL21 (DE3), purified (Co2+-NTA, anion exchange, SEC); not shown: His6, N-terminal, cleaved
The data set is described as above. The note with it: both partners purified.

T3 sequence (P11021 422-654): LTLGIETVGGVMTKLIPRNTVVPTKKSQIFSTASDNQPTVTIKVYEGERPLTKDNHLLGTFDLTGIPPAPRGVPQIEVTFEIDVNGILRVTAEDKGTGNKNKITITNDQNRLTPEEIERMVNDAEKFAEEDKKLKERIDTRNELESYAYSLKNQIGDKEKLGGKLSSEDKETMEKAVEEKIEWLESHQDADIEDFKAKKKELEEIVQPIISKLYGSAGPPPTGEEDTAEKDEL

With B1, in [1], the “stoichiometry N” value was 1 1:1 and 2 2:1 (which of the two stands twice is not said).

In the case of B2, the “stoichiometry N” value in [2] was 2 and 4. The binding result in data set [3] is given as “binds”. For the molecule B3, the Kd in [4] was found to be 6.4 µM; in data set [5], 1.33 µM. Also, the “stoichiometry N” value in the data set “SEC-MALS” is 2.

Turning to B4, the Kd in [4] was 9.3 µM; in data set [5], 1.92 µM. Further, the “stoichiometry N” value in the data set “SEC-MALS” is 2.

For B5, the Kd in [6] stood at 2.05 µM; in data set [7], 1.97 µM. Regarding B6, the binding result in [3] is recorded as “binds”. On the same count and under the same terms, as for B7, the entry is “binds”. As to B8, the Kd stood at 5.1 µM in data set [8] and 8.7 µM in [5].

The record behind these values is PMC4337721, “Noncanonical binding of BiP ATPase domain to Ire1 and Perk is dissociated by unfolded protein CH1 to initiate ER stress signaling” (eLife, 2015).
